PMC12861664 (2025)

Molecular target: coxsackievirus B5 Faulkner strain, purified virus (wild type) (coxsackievirus B5 (CV-B5/Faulkner))
Assay: SPR

B1: decay accelerating factor (DAF) protein with tag (receptor)
chain: DCGLPPDVPNAQPALEGRTSFPEDTVITYKCEESFVKIPGEKDSVICLKGSQWSDIEEFCNRSCEVPTRLNSASLKQPYITQNYFPVGTVVEYECRPGYRREPSLSPKLTCLQNLKWSTAVEFCKKKSCPNPGEIRNGQIDVPGGILFGATISFSCNTGYKLFGSTSSFCLISGSSVQWSDPLPECREIYCPAPPQIDNGIIQGERDHYGYRQSVTYACNKGFTMIGEHSIYCTVNNDEGEWSGPPPECRGKSLTSKVPPTVQKPTTVNVPTTEVSPTSQKTTTKTTTPNAQATRSTPVSRTTKHFHETTPNKGSGTTS
  Kd: 5.69 nM
